Measurements published in patent US20250042994A1 (HAINAN SIMCERE ZAIMING PHARMACEUTICAL, published 2025).
One block for each binder: values may come before it.

Key:
Human CD19-his protein [1] = biological target: T1, Human CD19-his protein (human, UniProt P15391 20-291); assay: ELISA, antibody at 0.10 nM
T1 construct: bought protein; also called human CD19 protein; recombinant human CD19-His; not shown: His tag
T1 sequence (looked up): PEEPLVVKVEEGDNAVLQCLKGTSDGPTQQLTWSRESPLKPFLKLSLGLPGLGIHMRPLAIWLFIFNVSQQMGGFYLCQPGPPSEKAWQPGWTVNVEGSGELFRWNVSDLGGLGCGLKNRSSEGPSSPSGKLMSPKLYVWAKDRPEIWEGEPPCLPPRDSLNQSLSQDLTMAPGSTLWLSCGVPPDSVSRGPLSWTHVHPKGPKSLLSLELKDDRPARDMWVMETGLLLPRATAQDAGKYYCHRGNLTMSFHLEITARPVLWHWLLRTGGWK

murine CD19 protein = biological target: T2, murine CD19 protein (murine, UniProt P25918 17-287, limits assumed); assay: ELISA, coated murine CD19
T2 construct: bought protein; also called commercial murine CD19
T2 sequence (looked up): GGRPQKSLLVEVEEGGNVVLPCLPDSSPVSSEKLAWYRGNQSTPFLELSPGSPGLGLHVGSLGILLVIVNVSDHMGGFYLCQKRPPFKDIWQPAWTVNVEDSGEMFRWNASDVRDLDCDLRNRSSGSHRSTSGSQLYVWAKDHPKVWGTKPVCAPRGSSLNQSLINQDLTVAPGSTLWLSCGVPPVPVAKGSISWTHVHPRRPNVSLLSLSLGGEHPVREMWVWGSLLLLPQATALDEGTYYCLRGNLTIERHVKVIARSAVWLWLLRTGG
Procedure, shortened: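 Plates coated overnight at 4° C with recombinant murine or monkey CD19 and blocked with 2% BSA. Chimeric antibodies, serially diluted from 100 nM, bound for 2 h at 37° C. TMB development for 10 min with OD450 read-out.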

Human CD19-his protein [2] = biological target: T1, Human CD19-his protein; assay: ELISA, antibody at 10 nM
Human CD19-his protein [3] = biological target: T1, Human CD19-his protein; assay: ELISA on coated human CD19-His
Procedure: Human CD19-his protein (purchased from ACROBiosystems, catalog number: CD9-H52H2) was diluted with PBS to a final concentration of 4 μg/mL, and then added to a 96-well ELISA plate at 100 μl/well. The plate was sealed with a plastic film and incubated overnight at 4° C., the plate was washed 2 times with PBS the next day, and then a blocking solution [PBS+2% (w/w) BSA] was added for blocking at room temperature for 2 h. The blocking solution was poured off, and 100 nM gradiently diluted CD19 chimeric antibody or control antibody was added at 50 μl/well. After incubation at 37° C. for 2 h, the plate was washed 3 times with PBS. […] TMB substrate was added at 50 μl/well, and incubated at room temperature for 10 min, and then a stop solution (1.0 N HCl) was added at 50 μl/well. The OD450 nm values were read by an ELISA microplate reader (Multimode Plate Reader, EnSight, purchased from Perkin Elmer).

Human CD19-his protein [4] = biological target: T1, Human CD19-his protein; assay: ELISA, antibody at 0.0001 nM
Human CD19-his protein [5] = biological target: T1, Human CD19-his protein; assay: ELISA, antibody at 0.01 nM
[6] = biological target: T3, human CD19 exon1-3-his protein (human, UniProt P15391 20-186, limits assumed); assay: ELISA, coated at 2 ug/mL
T3 construct: made in HEK293E cells; also called membrane-distal end; not shown: His tag
T3 sequence (looked up): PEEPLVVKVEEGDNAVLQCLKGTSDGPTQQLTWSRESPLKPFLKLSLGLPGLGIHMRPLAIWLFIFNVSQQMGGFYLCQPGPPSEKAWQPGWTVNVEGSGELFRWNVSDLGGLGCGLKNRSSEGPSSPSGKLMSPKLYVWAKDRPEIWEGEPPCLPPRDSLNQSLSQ

Human CD19-his protein [7] = biological target: T1, Human CD19-his protein; assay: ELISA, antibody at 1.00 nM
Human CD19-his protein [8] = biological target: T1, Human CD19-his protein; assay: ELISA, antibody at 0.001 nM
Human CD19-his protein [9] = biological target: T1, Human CD19-his protein; assay: ELISA, antibody at 100 nM

OD450 (Human CD19-his protein [1]): 1.09
binding result (murine CD19 protein): no binding
OD450 (Human CD19-his protein [2]): 1.72
EC50 (read off the curve) (Human CD19-his protein [3]): ~0.07 nM
OD450 (Human CD19-his protein [4]): 0.06
OD450 (Human CD19-his protein [5]): 0.28
binding result [6]: no binding
OD450 (Human CD19-his protein [7]): 1.58
OD450 (Human CD19-his protein [8]): 0.08
OD450 (Human CD19-his protein [9]): 1.98
B1: F1-mab003 (antibody, human IgG1, V domains shown)
VH: EVQLQQSGPELVKPGASVKMSCKASGYTFTDYVMHWVRQTPGQGLEWIGYFNPYNDGTNYNEKFKVKATLTSDKSSTTAYMELSSLTSEDSAVYYCARGVYYYGRDFDYWGQGTTLTVSS
VL: DVVLTQTPLSLPVSLGDQASISCRSSQSLENSNGNSYLNWYLQKPGQSPQLLIYRVSNRFSGVLDRFSGSGSGTDFTLKISRVEAEDLGVYFCLQITHVPWTFGGGTKLEIK
notes: human-murine chimeric antibody, human IgG1

OD450 (Human CD19-his protein [1]): 0.68
binding result (murine CD19 protein): no binding
OD450 (Human CD19-his protein [2]): 1.76
EC50 (read off the curve) (Human CD19-his protein [3]): ~0.2 nM
OD450 (Human CD19-his protein [4]): 0.05
OD450 (Human CD19-his protein [5]): 0.15
binding result [6]: no binding
OD450 (Human CD19-his protein [7]): 1.48
OD450 (Human CD19-his protein [8]): 0.07
OD450 (Human CD19-his protein [9]): 1.52
B2: F5.10.6 (antibody, human IgG1, V domains shown)
VH: DVQLQESGPGLVKPSQSLSLTCSVTDYSITSGYYWTWIRQFPGNKLEWMGYISYDGSTNYNPSLKNRFSITRDTSKNQFFLKLNSVIIEDTATYYCARDRMSTTWYFDVWGTGTTVTVSS
VL: DIVLTQSPASLAVSLGQRATISCRASESVDNYGISFMHWYQQKPGQPPKLLIYRASKTESGIPARFSGSGSRTDFTLTINPVETDDVATYYCQQSNKYPRTFGGGTKVEIK
notes: as for B1

OD450 (Human CD19-his protein [1]): 0.76
binding result (murine CD19 protein): no binding
OD450 (Human CD19-his protein [2]): 1.92
EC50 (read off the curve) (Human CD19-his protein [3]): ~0.2 nM
OD450 (Human CD19-his protein [4]): 0.05
OD450 (Human CD19-his protein [5]): 0.12
binding result [6]: no binding
OD450 (Human CD19-his protein [7]): 1.63
OD450 (Human CD19-his protein [8]): 0.06
OD450 (Human CD19-his protein [9]): 2.02
B3: F4.180.1 (antibody, human IgG1, V domains shown)
VH: EVQLQQSAPELVKPGASVKMSCKTSGYTFTENIIHWVKQTHGKSLEWIGGINPDNGGTSYHQKFKGRTTLTIDKSSSTAYMELRSLTSDDSAVFFCARQAPLYWYFDIWGAGTTVTVSS
VL: DIVLTQSPASLAVSLGQRATISCRASESVDSYGNSLMHWFQQKPGQPPRLLIYRASNLESGIPARFSGSGSRTDFTLTITPVEADDVATYYCQQSNEDPWTFGGGTKLEIK
notes: as for B1

OD450 (Human CD19-his protein [1]): 0.22
binding result (murine CD19 protein): no binding
OD450 (Human CD19-his protein [2]): 0.93
EC50 (read off the curve) (Human CD19-his protein [3]): ~0.4 nM
OD450 (Human CD19-his protein [4]): 0.05
OD450 (Human CD19-his protein [5]): 0.08
binding result [6]: no binding
OD450 (Human CD19-his protein [7]): 0.69
OD450 (Human CD19-his protein [8]): 0.06
OD450 (Human CD19-his protein [9]): 0.96
B4: F5.8.6 (antibody, human IgG1, V domains shown)
VH: QVQLHQPGAELVMPGASVTLSCKASGYTFTSYWMHWVKQRPGQGLEWIGEIDPSDSYTTYDQKFKGKATLTVDKFSSTAYMQFSSLTSEDSAVYYCARLTGNHLDYWGQGTTLTVSS
VL: DIVMTQSHKFMSSSVGDRVSITCKASQDVSPAVAWYQQKPGQSPKLLIYSTSYRNTGVPDRFTGSGSGTDFTFTISSVQAEDLAVYYCQQHYSIPLTFGAGTKLELK
notes: as for B1

OD450 (Human CD19-his protein [1]): 0.57
binding result (murine CD19 protein): no binding
OD450 (Human CD19-his protein [2]): 1.43
EC50 (read off the curve) (Human CD19-his protein [3]): ~0.2 nM
OD450 (Human CD19-his protein [4]): 0.05
OD450 (Human CD19-his protein [5]): 0.13
binding result [6]: no binding
OD450 (Human CD19-his protein [7]): 1.42
OD450 (Human CD19-his protein [8]): 0.06
OD450 (Human CD19-his protein [9]): 1.69
B5: F4.191.1 (antibody, human IgG1, V domains shown)
VH: QVQLQQPGAELVRPGASVKLSCKASGYTFTSYWINWVKQRPGQGLEWIGNIHPSDSYTNYNQKFKDKATLTVDKSSSTAYMQFSSPTSEDSAVYYCTREDYYYGSNYDAMDYWGQGTSVTVSS
VL: DIVMTQSHKFMSTSVGDRVNITCKASQDVGSSVAWYQQKPGQSPKLLIYWASTRHAGVPDRFTGSGSGADFTLTISNVQSEDLADYFCQQYSTYPLTFGAGTKLELK
notes: as for B1
